Data from patent US20260193348A1.

Assays:
[1] = biological target: GPRC5D (G-protein coupled receptor family C group 5 member D), human, on multiple myeloma cell lines (human) (UniProt Q9NZD1); assay: cell-based or functional assay
[2] = biological target: CD3 (Cluster of Differentiation 3 protein), human, on T cells / Jurkat cells (human) (UniProt P07766); assay: FACS, CD3+ T cells isolated from normal donors
Chain of CD3 (Cluster of Differentiation 3 protein), human, on T cells / Jurkat cells (human) (P07766 23-207, chain 1 of 3): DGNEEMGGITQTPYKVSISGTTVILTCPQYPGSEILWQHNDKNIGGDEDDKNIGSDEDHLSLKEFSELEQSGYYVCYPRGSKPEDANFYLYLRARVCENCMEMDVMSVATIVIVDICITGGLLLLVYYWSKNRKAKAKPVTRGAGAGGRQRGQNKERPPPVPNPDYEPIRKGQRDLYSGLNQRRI
Chain of CD3 (Cluster of Differentiation 3 protein), human, on T cells / Jurkat cells (human) (P04234 22-171, chain 2 of 3, further chain): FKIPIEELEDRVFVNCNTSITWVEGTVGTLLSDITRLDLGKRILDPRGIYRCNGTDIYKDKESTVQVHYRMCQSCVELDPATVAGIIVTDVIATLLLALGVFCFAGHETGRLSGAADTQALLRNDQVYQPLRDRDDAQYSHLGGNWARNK
Chain of CD3 (Cluster of Differentiation 3 protein), human, on T cells / Jurkat cells (human) (P09693 23-182, chain 3 of 3, further chain): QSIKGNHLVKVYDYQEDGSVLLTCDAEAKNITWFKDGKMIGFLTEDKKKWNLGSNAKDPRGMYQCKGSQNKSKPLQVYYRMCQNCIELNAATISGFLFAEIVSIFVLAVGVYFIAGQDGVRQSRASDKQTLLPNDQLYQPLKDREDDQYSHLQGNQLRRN

Chain of GPRC5D (G-protein coupled receptor family C group 5 member D), human, on multiple myeloma cell lines (human) (Q9NZD1 whole entry): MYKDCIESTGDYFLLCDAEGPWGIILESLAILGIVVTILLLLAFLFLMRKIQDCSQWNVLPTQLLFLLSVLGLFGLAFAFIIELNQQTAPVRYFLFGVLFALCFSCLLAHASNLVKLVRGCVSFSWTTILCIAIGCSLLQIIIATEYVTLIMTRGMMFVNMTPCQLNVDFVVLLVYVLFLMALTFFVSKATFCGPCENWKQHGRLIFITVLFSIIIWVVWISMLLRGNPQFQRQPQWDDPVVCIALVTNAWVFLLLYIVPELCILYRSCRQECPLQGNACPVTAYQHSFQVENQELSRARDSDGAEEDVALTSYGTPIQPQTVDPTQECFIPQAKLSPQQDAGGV

Top (RLU), luciferase assay, L363 [1]: 23.4 RLU
Top (RLU), luciferase assay, MM.1S [1]: 30.7 RLU
Top (RLU), luciferase assay, RPMI8226 [1]: 5.33 RLU
Top (MFI) [2]: 124 MFI
Substance: IgG1 (antibody)
Top (%), T-Cell Dependent Cytotoxicity, MM.1S [1]: 6.08%
